Drawing on article PMC6997370, “Significant improvement in catalytic activity and enantioselectivity of a Phaseolus vulgaris epoxide hydrolase, PvEH3, towards ortho-cresyl glycidyl ether based on the semi-rational design” (Scientific Reports, 2020), this text covers Km and kcat for two proteins.

Substrate in data set [1]: Cc1ccccc1OC[C@@H]1CO1
Put plainly: initial hydrolysis rate by HPLC, non-linear regression. To be noted: pH 7.0 phosphate 100 mM, 20 °C, 5% methanol, 1.5-15 mM substrate. Type of data set: biochemical, Phaseolus vulgaris. The source says:
(§1) initial hydrolysis rate by HPLC, non-linear regression on PvEH3

Substrate in data set [2]: Cc1ccccc1OC[C@H]1CO1
Described as above. Type of data set: biochemical, Phaseolus vulgaris. The following applies: pH 7.0 phosphate 100 mM, 20 °C, 5% methanol, 1.5-15 mM substrate.
Text: as §1

B1: PvEH3 (Phaseolus vulgaris) (protein)
chain: MEGIQHKEVEVNGIKMHVAEKGEGPVVLFLHGFPELWYSWRHQILALSSRGYRAVAPDLRGYGDTEAPASMSSYSCFDIVGDLVALIDLLGVDQVFLVAHDWGAIIGWYLCMFRPDRVKAYVCLSVPLLHRNPEIRTVDAMRAMYGDDYYICRFQKPGEMEAQMAEVGTGYVLKNILTTRKPGPPIFPKGEYGTGFNPDMTNSLPSWLSQHDLAYYVSKFQKTGFTGPLNYYRNMNPNWELTAPWSGAKIKVPVKFITGDLDMVYTSLNMKEYIHGGGFKEDVPNLEEVIVQKGVAHFNNQEAAEEINTHIYDFINKF
notes: pET-28a(+), N-terminal 6xHis tag, E. coli BL21(DE3), Ni-NTA purified; catalytic Asp101, Tyr150, Tyr232
By Km is commonly meant the concentration of substrate that gives half-maximal velocity. By kcat is commonly meant the number of substrate molecules converted per active site and unit of time at saturation. Turning to B1, the Km in data set [1] is recorded as 6.14 ± 0.22 mM. In data set [2], the Km worked out at 9.84 ± 0.28 mM and the kcat came out at 1.12 ± 0.05 s⁻¹.

B2: PvEH3 (Phaseolus vulgaris; E134K/T137P) (protein)
chain: MEGIQHKEVEVNGIKMHVAEKGEGPVVLFLHGFPELWYSWRHQILALSSRGYRAVAPDLRGYGDTEAPASMSSYSCFDIVGDLVALIDLLGVDQVFLVAHDWGAIIGWYLCMFRPDRVKAYVCLSVPLLHRNPKIRPVDAMRAMYGDDYYICRFQKPGEMEAQMAEVGTGYVLKNILTTRKPGPPIFPKGEYGTGFNPDMTNSLPSWLSQHDLAYYVSKFQKTGFTGPLNYYRNMNPNWELTAPWSGAKIKVPVKFITGDLDMVYTSLNMKEYIHGGGFKEDVPNLEEVIVQKGVAHFNNQEAAEEINTHIYDFINKF
notes: as for B1
As to B2, the Michaelis constant (Km) was 3.29 ± 0.15 mM in data set [1] and 5.40 ± 0.21 mM in data set [2]. Moreover, the kcat in data set [2] was found to be 1.37 ± 0.06 s⁻¹.
